The record followed here is US20150259425A1 (AbbVie / Abbott, published 2015).

The target in experiment [1] is T1, recombinant human CD16a (human, UniProt P08637 17-208, limits assumed).
T1 construct: Recombinant human CD16a solution used in the AlphaScreen assay; also called CD16a receptor; human CD16a receptor
As to the kind of experiment: AlphaScreen, recombinant human CD16a; high glycine batch against control batch. The procedure: (§1) A CD16a binding assay was performed using AlphaScreen (PerkinElmer) method to assess the binding potency of the antibody Fc region of four different antibodies to human CD16a receptor. The antibody solution was first mixed with a recombinant human CD16a solution and assay buffer, and then Alphascreen donor beads and antibody acceptor beads were added. The mixture was incubated in a light protected location for 4 hours at room temperature and the fluorescent signal was detected using a plate reader with laser excitation at 680 nm and light emission 520-620 nm. The binding potency relative to the antibody reference cultured in a basal medium without excess glycine was reported.

Experiment [2] concerns the target T1, recombinant human CD16a. Kind of experiment: AlphaScreen, recombinant human CD16a in solution; batch: 2 L control medium. The procedure:
as §1

The target of experiment [3] is T1, recombinant human CD16a. As to the kind of experiment: AlphaScreen, recombinant human CD16a in solution; batch: 250 L control medium. The procedure: as §1
Experiment [4] has as its target T1, recombinant human CD16a. As to the kind of experiment: AlphaScreen, recombinant human CD16a in solution; batch: 2 L with extra glycine. As for the experimental part: as §1
The target of experiment [5] is T1, recombinant human CD16a. Kind of experiment: AlphaScreen, recombinant human CD16a in solution; batch: 100 L with extra glycine. As for the experimental part:
as §1

Experiment [6] has as its target T1, recombinant human CD16a. Kind of experiment: AlphaScreen, recombinant human CD16a in solution; batch: 1 kL control medium. The procedure: as §1
Experiment [7] addresses T1, recombinant human CD16a. Kind of experiment: AlphaScreen, recombinant human CD16a in solution; batch: 1 kL with extra glycine. As for the experimental part:
as §1

In experiment [8] the target is T1, recombinant human CD16a. Kind of experiment: AlphaScreen, recombinant human CD16a in solution; batch: 1 kL control (GMP). As for the experimental part:
as §1

The target in experiment [9] is T1, recombinant human CD16a. Kind of experiment: AlphaScreen, recombinant human CD16a in solution; batch: 100 L control medium. The procedure:
as §1

Experiment [10] deals with T1, recombinant human CD16a. As to the kind of experiment: AlphaScreen, recombinant human CD16a in solution; batch: 50 L with extra glycine. The procedure:
as §1

Experiment [11] addresses T1, recombinant human CD16a. As to the kind of experiment: AlphaScreen, recombinant human CD16a in solution; dose response study, batch: 2 L control (2 mM glycine). The procedure: as §1
The target in experiment [12] is T1, recombinant human CD16a. Kind of experiment: AlphaScreen, recombinant human CD16a in solution; dose response study, batch: 2 L with extra 5 mM glycine. As for the experimental part:
as §1

For experiment [13], the target named is T1, recombinant human CD16a. As to the kind of experiment: AlphaScreen, recombinant human CD16a in solution; dose response study, batch: 2 L with extra 15 mM glycine. The procedure: as §1
Experiment [14] has as its target T1, recombinant human CD16a. Kind of experiment: AlphaScreen, recombinant human CD16a in solution; dose response study, batch: 2 L with extra 30 mM glycine. As for the experimental part: as §1

B1: PDL241 (antibody, human IgG1, kappa)
heavy: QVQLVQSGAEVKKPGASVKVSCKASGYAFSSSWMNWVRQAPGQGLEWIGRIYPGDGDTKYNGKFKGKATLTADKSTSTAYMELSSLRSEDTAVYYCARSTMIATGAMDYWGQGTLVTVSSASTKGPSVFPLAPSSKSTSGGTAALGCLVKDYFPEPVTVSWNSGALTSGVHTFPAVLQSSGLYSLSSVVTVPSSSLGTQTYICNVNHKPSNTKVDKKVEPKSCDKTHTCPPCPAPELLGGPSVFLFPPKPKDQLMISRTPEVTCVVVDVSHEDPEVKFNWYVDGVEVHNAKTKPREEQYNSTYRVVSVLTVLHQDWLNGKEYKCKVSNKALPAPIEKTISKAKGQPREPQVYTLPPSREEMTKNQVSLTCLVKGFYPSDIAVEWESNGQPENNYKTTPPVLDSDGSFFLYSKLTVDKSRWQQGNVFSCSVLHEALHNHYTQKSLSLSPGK
light: DIQMTQSPSSLSASVGDRVTITCKASQDVSTAVAWYQQKPGKAPKLLIYSASYRYTGVPDRFTGSGSGTDFTLTISSLQPEDFATYYCQQHYSTPPYTFGGGTKVEIKRTVAAPSVFIFPPSDEQLKSGTASVVCLLNNFYPREAKVQWKVDNALQSGNSQESVTEQDSKDSTYSLSSTLTLSKADYEKHKVYACEVTHQGLSSPVTKSFNRGEC
modifications: N-linked glycans; the share of non-fucosylated glycoforms differs between batches
notes: Humanized IgG1 to CS1, made in NS0 cells; Batches differ only in glycoforms
For the molecule B1, in the experiment with recombinant human CD16a [1], the “increase in binding affinity relative to the control antibody (basal medium, 2 mM glycine)” value stood at 40 % increase. Further, the “CD16a Binding Relative to Reference” value turned out to be 147% with recombinant human CD16a [2], 100% with recombinant human CD16a [3], 277% with recombinant human CD16a [4] and 137% with recombinant human CD16a [5].

B2: elotuzumab (antibody, human IgG1, kappa)
heavy: not shown
light: DIQMTQSPSSLSASVGDRVTITCKASQDVGIAVAWYQQKPGKVPKLLIYWASTRHTGVPDRFSGSGSGTDFTLTISSLQPEDVATYYCQQYSSYPYTFGQGTKVEIKRTVAAPSVFIFPPSDEQLKSGTASVVCLLNNFYPREAKVQWKVDNALQSGNSQESVTEQDSKDSTYSLSSTLTLSKADYEKHKVYACEVTHQGLSSPVTKSFNRGEC
modifications: N-linked glycans; the share of non-fucosylated glycoforms differs between batches (control vs high glycine medium)
notes: IgG1 made in NS0 cells; also called HuLuc63; HuLuc 63
Turning to B2, the “increase in binding affinity relative to the control antibody (basal medium, 2 mM glycine)” value with recombinant human CD16a [1] came out at 40 % increase. The figures for the “CD16a Binding Relative to Reference” value in the experiment with recombinant human CD16a [6], with recombinant human CD16a [7] and in the experiment with recombinant human CD16a [5] were 100%, 146% and 128%, respectively.

B3: daclizumab (antibody, human IgG1, kappa)
heavy: not shown
light: DIQMTQSPSTLSASVGDRVTITCSASSSISYMHWYQQKPGKAPKLLIYTTSNLASGVPARFSGSGSGTEFTLTISSLQPDDFATYYCHQRSTYPLTFGSGTKVEVKRTVAAPSVFIFPPSDEQLKSGTASVVCLLNNFYPREAKVQWKVDNALQSGNSQESVTEQDSKDSTYSLSSTLTLSKADYEKHKVYACEVTHQGLSSPVTKSFNR
modifications: N-linked glycans; the share of non-fucosylated glycoforms differs between batches
notes: Humanized IgG1 to CD25, made in NS0 cells; the entries may be incomplete; also called DAC HYP
With B3, the “increase in binding affinity relative to the control antibody (basal medium, 2 mM glycine)” value in the experiment with recombinant human CD16a [1] worked out at 40 % increase. Moreover, the “CD16a Binding Relative to Reference” value with recombinant human CD16a [2] amounted to 69%; with recombinant human CD16a [4], 137%.

B4: enavatuzumab (antibody, human IgG1, kappa)
heavy: not shown
light: DIQMTQSPSSLSASVGDRVTITCRASQSVSTSSYSYMHWYQQKPGKAPKLLIKYASNLESGVPSRFSGSGSGTDFTLTISSLQPEDFATYYCQHSWEIPYTFGGGTKVEIKRTVAAPSVFIFPPSDEQLKSGTASVVCLLNNFYPREAKVQWKVDNALQSGNSQESVTEQDSKDSTYSLSSTLTLSKADYEKHKVYACEVTHQGLSSPVTKSFNRGEC
modifications: N-linked glycans; the share of non-fucosylated glycoforms differs between batches
notes: Humanized IgG1 to TweakR, made in NS0 cells; Batches differ only in glycoforms; also called PDL192
With B4, the “increase in binding affinity relative to the control antibody (basal medium, 2 mM glycine)” value with recombinant human CD16a [1] was 40 % increase. Besides, the “CD16a Binding Relative to Reference” value in the experiment with recombinant human CD16a [8] was 65%; in the experiment with recombinant human CD16a [6] it was 96%; with recombinant human CD16a [9] it was 110%; with recombinant human CD16a [10], 136%; in the experiment with recombinant human CD16a [11], 130 relative to Reference (no unit printed; percent as in Table 15); with recombinant human CD16a [12] it was 146 relative to Reference (no unit printed; percent as in Table 15). Moreover, the “CD16a Binding Relative to Reference” value with recombinant human CD16a [13] was 151 relative to Reference (no unit printed; percent as in Table 15); with recombinant human CD16a [14] it was 144 relative to Reference (no unit printed; percent as in Table 15).
